Common to all, as to assay: cell-based or functional assay
The target of experiment [1] is T1, PTHR-1 (species and cells not stated for the assay) (Homo sapiens (Human), UniProt Q03431 27-593).
T1 sequence: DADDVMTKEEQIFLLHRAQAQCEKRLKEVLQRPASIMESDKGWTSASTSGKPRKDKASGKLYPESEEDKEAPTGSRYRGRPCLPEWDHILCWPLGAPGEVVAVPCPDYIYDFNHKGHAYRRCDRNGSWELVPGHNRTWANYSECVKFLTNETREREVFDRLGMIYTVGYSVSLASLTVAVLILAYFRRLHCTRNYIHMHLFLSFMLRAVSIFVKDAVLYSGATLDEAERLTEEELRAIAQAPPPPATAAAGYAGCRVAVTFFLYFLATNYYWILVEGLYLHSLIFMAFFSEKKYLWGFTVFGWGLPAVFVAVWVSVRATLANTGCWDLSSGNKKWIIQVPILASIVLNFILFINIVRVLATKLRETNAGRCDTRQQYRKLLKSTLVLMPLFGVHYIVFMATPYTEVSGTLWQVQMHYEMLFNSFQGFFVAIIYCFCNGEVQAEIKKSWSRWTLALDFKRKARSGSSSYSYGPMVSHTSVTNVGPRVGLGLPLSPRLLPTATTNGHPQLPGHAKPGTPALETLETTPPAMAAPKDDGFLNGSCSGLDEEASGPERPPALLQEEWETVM

For experiment [2], the target named is T2, human parathyroid hormone receptor 1, wild-type (hPTHR-1) (human, UniProt Q03431 27-593).
T2 sequence (looked up): T1 sequence

In another experiment the target is T3, delNT PTHR1 (human, UniProt Q03431 27-593).
T3 sequence (looked up): T1 sequence

The target of experiment [3] is T2, human parathyroid hormone receptor 1, …. This is another data set of the same source.
For experiment [4], the target named is T4, rat parathyroid hormone receptor 1, wild-type (rPTHR-1) (rat, UniProt P25961 27-591).
T4 sequence (looked up): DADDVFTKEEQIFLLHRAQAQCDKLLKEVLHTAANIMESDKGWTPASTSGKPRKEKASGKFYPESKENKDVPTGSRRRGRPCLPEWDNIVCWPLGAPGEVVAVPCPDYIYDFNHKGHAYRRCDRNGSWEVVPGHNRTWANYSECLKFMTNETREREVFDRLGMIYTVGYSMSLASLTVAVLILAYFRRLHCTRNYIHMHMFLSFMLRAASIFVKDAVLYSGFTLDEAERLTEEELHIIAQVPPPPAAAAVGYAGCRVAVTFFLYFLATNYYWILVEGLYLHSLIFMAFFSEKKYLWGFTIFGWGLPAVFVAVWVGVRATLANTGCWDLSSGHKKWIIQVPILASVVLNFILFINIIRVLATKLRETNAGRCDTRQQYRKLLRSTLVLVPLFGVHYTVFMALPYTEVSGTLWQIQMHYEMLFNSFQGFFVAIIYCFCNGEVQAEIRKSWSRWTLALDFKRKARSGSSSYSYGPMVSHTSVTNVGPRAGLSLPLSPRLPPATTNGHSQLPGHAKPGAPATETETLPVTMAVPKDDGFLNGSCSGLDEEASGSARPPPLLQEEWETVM
Also noted: AUC-on / AUC-washout: unit not given beside the values.

For experiment [5], the target named is T2, human parathyroid hormone receptor 1, …. The source holds these as a separate data set.
Experiment [6] shares this target. The source holds these as a separate data set.
Experiment [7] addresses T4, rat parathyroid hormone receptor 1, ….

Read-outs that look alike come from different tables or passages of the source. Non-standard residues stand in square brackets, D forms with d. Primed or numbered codes have the meaning given here. No end group written: not given here. APC = aminopyrrolidine carboxylic acid (2-aminopyrrolidine-4-carboxylic acid); ACPC(3) = 2-aminocyclopentane carboxylic acid (cyclic beta residue); ACPC″ = 2-aminocyclopentane carboxylic acid (X); ACPC = 2-aminocyclopentane carboxylic acid; hArg = N=C(N)NCCCC[C@H](N)C(=O)O; β3hE = N[C@@H](CCC(=O)O)CC(=O)O; β3hQ = NC(=O)CC[C@H](N)CC(=O)O; β3hD = NC(CC(=O)O)CC(=O)O; β3hS = N[C@@H](CO)CC(=O)O; β3hA = C[C@H](N)CC(=O)O; Aib = CC(C)(N)C(=O)O

In the case of [ACPC″]V[Aib]E[ACPC″]Q[ACPC″]MHQ[hArg]AK[ACPC″]LNS[ACPC″]RRV[APC]WLR[APC]KLQ[ACPC″]VHN[ACPC″]-NH2 [M-X1,5,7-FcycD6], in experiment [1], the “Fold PTH” value is 9.5 fold and the “cAMP EC50” value was determined as 0.78 nM.
As for S[ACPC]SEIQLMHNLGKHLNSMERVEWLRKKLQDVHNF-NH2 [ACPC(2) PTH(1-34)], in experiment [2], the “Fold PTH” value was found to be 3 fold and the “cAMP EC50” value is 0.27 nM. Further, in the experiment with delNT PTHR1, the “Fold PTH” value is 170 fold and the “cAMP EC50” value is 11000 nM.
[ACPC]VSEHQ[ACPC]LHDKGK[ACPC]IQD[ACPC]RRR[APC]LLE[APC]LL[Aib][ACPC]LHT[ACPC]-NH2 [CycD6 BA058 ACPC(1,7)]: in experiment [3], the “cAMP EC50” value is 18.9 nM.

B1: β3Ala(1) PTH(1-34) (peptide)
peptide: [β3hA]VSEIQLMHNLGKHLNSMERVEWLRKKLQDVHNF-NH2
modifications: N-terminus assumed
SMILES: CC[C@H](C)[C@H](NC(=O)[C@H](CCC(=O)O)NC(=O)[C@H](CO)NC(=O)[C@@H](NC(=O)C[C@H](C)N)C(C)C)C(=O)N[C@@H](CCC(N)=O)C(=O)N[C@@H](CC(C)C)C(=O)N[C@@H](CCSC)C(=O)N[C@@H](Cc1c[nH]cn1)C(=O)N[C@@H](CC(N)=O)C(=O)N[C@@H](CC(C)C)C(=O)NCC(=O)N[C@@H](CCCCN)C(=O)N[C@@H](Cc1c[nH]cn1)C(=O)N[C@@H](CC(C)C)C(=O)N[C@@H](CC(N)=O)C(=O)N[C@@H](CO)C(=O)N[C@@H](CCSC)C(=O)N[C@@H](CCC(=O)O)C(=O)N[C@@H](CCCNC(=N)N)C(=O)N[C@H](C(=O)N[C@@H](CCC(=O)O)C(=O)N[C@@H](Cc1c[nH]c2ccccc12)C(=O)N[C@@H](CC(C)C)C(=O)N[C@@H](CCCNC(=N)N)C(=O)N[C@@H](CCCCN)C(=O)N[C@@H](CCCCN)C(=O)N[C@@H](CC(C)C)C(=O)N[C@@H](CCC(N)=O)C(=O)N[C@@H](CC(=O)O)C(=O)N[C@H](C(=O)N[C@@H](Cc1c[nH]cn1)C(=O)N[C@@H](CC(N)=O)C(=O)N[C@@H](Cc1ccccc1)C(N)=O)C(C)C)C(C)C
With B1, in experiment [2], the “Fold PTH” value came out at 2.2 fold and the “cAMP EC50” value came to 0.2 nM. Moreover, in the experiment with delNT PTHR1, the “Fold PTH” value came to 0.4 fold and the “cAMP EC50” value worked out at 25 nM.
As for [ACPC]VSE[ACPC]Q[ACPC]LHDKGKSIQDLRRRELLEKLL[Aib]KLHTA-NH2 [BA058 ACPC(1,5,7)], the “cAMP EC50” value in experiment [3] was determined as 0.26 nM.
Turning to [β3hS]VSEIQLMHNLGKHLNSMERVEWLRKKLQDVHNF-NH2 [β3Ser(1) PTH(1-34)], the “cAMP EC50” value in experiment [2] amounted to 0.06 nM.
On to SVSEI[ACPC]LMHNLGKHLNSMERVEWLRKKLQDVHNF-NH2 [ACPC(6) PTH(1-34)], for which the “Fold PTH” value turned out to be 3.7 fold in experiment [2] and 360 fold with delNT PTHR1. The “cAMP EC50” value was determined as 0.34 nM in experiment [2] and 22000 nM in the experiment with delNT PTHR1.
For H[ACPC(3)]V[Aib]E[ACPC(3)]Q[ACPC(3)]MHQ[hArg]AK[ACPC(3)]LNS[ACPC(3)]RRV[β3hE]WLR[APC]KLQ[β3hD]VHN[ACPC(3)]-NH2 (not fully specified) [M-X1,5,7-CycD6], in experiment [1], the “Fold PTH” value stood at 3.8 fold and the “cAMP EC50” value worked out at 0.31 nM.
Take [ACPC]VSE[ACPC]Q[ACPC]LHDKGK[ACPC]IQD[ACPC]RRR[APC]LLE[APC]LL[Aib][ACPC]LHT[ACPC]-NH2 [CycD6 BA058 ACPC(1,5,7)]: the “cAMP EC50” value in experiment [3] is 0.65 nM.
Turning to [ACPC]VSEIQLMHNLGKHLNSMERVEWLRKKLQDVHNF-NH2 [ACPC(1) PTH(1-34)], in experiment [2], the “Fold PTH” value is 1.6 fold and the “cAMP EC50” value was 0.15 nM. Also, in the experiment with delNT PTHR1, the “Fold PTH” value was 8 fold and the “cAMP EC50” value turned out to be 500 nM.
As to [ACPC]VSEHQ[ACPC]LHDKGKSIQDLRRRELLEKLL[Aib]KLHTA-NH2 [BA058 ACPC(1,7)], the “cAMP EC50” value in experiment [3] amounted to 4.69 nM.
SVSEI[β3hQ]LMHNLGKHLNSMERVEWLRKKLQDVHNF-NH2 [β3Gln(6) PTH(1-34)]: the results for the “cAMP EC50” value (in experiment [2]; in the experiment with delNT PTHR1) were 14.6 nM and 6700 nM, respectively.
Take SV[ACPC]EIQLMHNLGKHLNSMERVEWLRKKLQDVHNF-NH2 [ACPC(3) PTH(1-34)]: in experiment [2], the “Fold PTH” value was found to be 126 fold and the “cAMP EC50” value was found to be 11.5 nM. Also, in the experiment with delNT PTHR1, the “Fold PTH” value amounted to 130 fold and the “cAMP EC50” value was 7800 nM.
For SVSEIQL[ACPC]HNLGKHLNSMERVEWLRKKLQDVHNF-NH2 [ACPC(8) PTH(1-34)] the same measures were 107 fold, 9.74 nM, 480 fold and 29000 nM.

B2: M-PTH(1-34) (peptide)
peptide: AVAEIQLMHQ[hArg]AKWLNSMRRVEWLRKKLQDVHNF-NH2
modifications: N-terminus assumed
SMILES: CC[C@H](C)[C@H](NC(=O)[C@H](CCC(=O)O)NC(=O)[C@H](C)NC(=O)[C@@H](NC(=O)[C@H](C)N)C(C)C)C(=O)N[C@@H](CCC(N)=O)C(=O)N[C@@H](CC(C)C)C(=O)N[C@@H](CCSC)C(=O)N[C@@H](Cc1c[nH]cn1)C(=O)N[C@@H](CCC(N)=O)C(=O)N[C@@H](CCCCNC(=N)N)C(=O)N[C@@H](C)C(=O)N[C@@H](CCCCN)C(=O)N[C@@H](Cc1c[nH]c2ccccc12)C(=O)N[C@@H](CC(C)C)C(=O)N[C@@H](CC(N)=O)C(=O)N[C@@H](CO)C(=O)N[C@@H](CCSC)C(=O)N[C@@H](CCCNC(=N)N)C(=O)N[C@@H](CCCNC(=N)N)C(=O)N[C@H](C(=O)N[C@@H](CCC(=O)O)C(=O)N[C@@H](Cc1c[nH]c2ccccc12)C(=O)N[C@@H](CC(C)C)C(=O)N[C@@H](CCCNC(=N)N)C(=O)N[C@@H](CCCCN)C(=O)N[C@@H](CCCCN)C(=O)N[C@@H](CC(C)C)C(=O)N[C@@H](CCC(N)=O)C(=O)N[C@@H](CC(=O)O)C(=O)N[C@H](C(=O)N[C@@H](Cc1c[nH]cn1)C(=O)N[C@@H](CC(N)=O)C(=O)N[C@@H](Cc1ccccc1)C(N)=O)C(C)C)C(C)C
For the molecule B2, in experiment [1], the “Fold PTH” value is 4.2 fold and the “cAMP EC50” value is 0.34 nM. In addition, in experiment [4], the “AUC Ratio” value worked out at 14.8, the AUC-on is 43000 and the AUC-washout stood at 640000.

B3: A3 (peptide)
peptide: SVSEIQLMHNLGKHLNSMERVEWLRKKLQDVHNF
modifications: C-terminal amide; three β3 residues with native side chains, αααβ pattern; bold marks lost in text (inferred 23, 27, 31)
Consider B3, for which the “cAMP EC50” value in experiment [5] and in experiment [6] was 0.29 nM in each case. The “cAMP Max” value in experiment [7] stood at 74 cps × 10-3.
Turning to AVSEHQLLHDKGK[ACPC]IQD[ACPC]RRR[APC]LLE[APC]LL[Aib][ACPC]LHT[ACPC]-NH2 [CycD6 BA058], in experiment [3], the “cAMP EC50” value was determined as 0.18 nM.
As for SVSE[ACPC]QLMHNLGKHLNSMERVEWLRKKLQDVHNF-NH2 [ACPC(5) PTH(1-34)], in experiment [2], the “Fold PTH” value amounted to 1.9 fold and the “cAMP EC50” value came out at 0.17 nM. Further, in the experiment with delNT PTHR1, the “Fold PTH” value is 65 fold and the “cAMP EC50” value turned out to be 4100 nM.
With [ACPC]VSEHQ[ACPC]LHDKGKSIQDLRRRELLEKLL[Aib]KLHT[ACPC]-NH2 (not fully specified; also: D6 β3 residues, positions not shown (marking lost)) [D6 BA058 ACPC(1,7)], the “cAMP EC50” value in experiment [3] is 141 nM.

For the origin of these results see US20140378382A1 (WISCONSIN ALUMNI RESEARCH FOUNDATION, published 2014).
